{"source": "patent US20140248638A1", "about": "(BAXALTA, published 2014)", "biological_target": "T1, human oxMIF (oxidized macrophage migration inhibitory factor) (human, UniProt P14174 2-115, oxidized isoform: made by mild oxidation (cystine, GSSG) or by 0.2% Proclin300 or protein crosslinkers (e.g. BMOE); the modified residues are not stated)", "T1 construct": "mature; a conformational/redox isoform; also called oxidized MIF; recombinant human oxMIF", "T1 sequence (P14174 2-115)": "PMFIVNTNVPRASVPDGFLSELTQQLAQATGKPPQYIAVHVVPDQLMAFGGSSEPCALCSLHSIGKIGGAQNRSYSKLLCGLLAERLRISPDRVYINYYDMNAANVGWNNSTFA", "experiment": "sandwich ELISA, plate coated with RAM0, human EDTA plasma; calibrated with recombinant human MIF in 0.2% ProClin300"}
{"binder": "human anti-MIF monoclonal antibody RAM0 (antibody, human IgG1, kappa, V domains shown, Deposits DSM 25864 and DSM 25863) VH: EVQLLESGGGLVQPGGSLRLSCAASGFTFSWYAMDWVRQAPGKGLEWVSGIYPSGGRTKYADSVKGRFTISRDNSKNTLYLQMNSLRAEDTAVYYCARVNVIAVAGTGYYYYGMDVWGQGTTVTVSS VL: DIQMTQSPGTLSLSPGERATLSCRASQGVSSSSLAWYQQKPGQAPRLLIYGTSSRATGIPDRFSGSASGTDFTLTISRLQPEDFAVYYCQQYGRSLTFGGGTKVEIKR", "values": [{"measurement": "binding result", "result": "binds"}]}
